According to patent EP4568683A2 (dated 2025):

Key:
[1] = target: T1, recombinant human PSMA protein (human, UniProt Q04609 44-750); test: ELISA, plates coated with 1 ug/mL recombinant human PSMA
T1 construct: On Blue native PAGE the protein appeared to be a mixture of dimer and monomer; also called recombinant human PSMA (Acro Biosciences / Acro Biosystems; printed 'Aero')

[2] = target: T2, human PSMA expressed on prostate cancer cell lines (22Rv1, C4-2B, PC3-PSMA) (human, UniProt Q04609 1-750); test: flow cytometry on PSMA-expressing 22Rv1 cells, PE anti-human IgG-Fc secondary, MFI
T2 construct: Endogenous PSMA on 22Rv1 and C4-2B cells; PC3 cells were engineered to express PSMA; also called prostate specific membrane antigen; FOLH1
T2 sequence (Q04609 whole entry): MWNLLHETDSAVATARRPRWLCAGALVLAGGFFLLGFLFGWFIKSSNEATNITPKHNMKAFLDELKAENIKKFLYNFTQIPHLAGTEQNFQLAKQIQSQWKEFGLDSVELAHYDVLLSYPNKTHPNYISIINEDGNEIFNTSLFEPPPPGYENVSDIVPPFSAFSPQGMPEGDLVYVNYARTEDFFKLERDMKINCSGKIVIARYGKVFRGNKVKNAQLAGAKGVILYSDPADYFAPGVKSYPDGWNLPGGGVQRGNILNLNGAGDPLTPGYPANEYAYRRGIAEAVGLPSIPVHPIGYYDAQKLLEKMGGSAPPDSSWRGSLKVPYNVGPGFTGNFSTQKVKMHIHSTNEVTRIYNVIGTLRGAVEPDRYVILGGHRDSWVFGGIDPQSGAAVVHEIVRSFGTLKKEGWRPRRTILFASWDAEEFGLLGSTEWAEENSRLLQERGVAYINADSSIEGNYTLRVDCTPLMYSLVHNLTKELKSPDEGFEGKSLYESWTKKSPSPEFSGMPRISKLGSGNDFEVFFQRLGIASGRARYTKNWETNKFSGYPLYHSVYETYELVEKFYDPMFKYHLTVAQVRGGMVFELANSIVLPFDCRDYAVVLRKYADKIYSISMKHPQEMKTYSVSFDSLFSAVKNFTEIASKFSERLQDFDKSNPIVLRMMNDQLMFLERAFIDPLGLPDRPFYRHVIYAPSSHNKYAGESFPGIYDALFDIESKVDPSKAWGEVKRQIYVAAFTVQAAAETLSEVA

T1 sequence (Q04609 44-750 limits assumed): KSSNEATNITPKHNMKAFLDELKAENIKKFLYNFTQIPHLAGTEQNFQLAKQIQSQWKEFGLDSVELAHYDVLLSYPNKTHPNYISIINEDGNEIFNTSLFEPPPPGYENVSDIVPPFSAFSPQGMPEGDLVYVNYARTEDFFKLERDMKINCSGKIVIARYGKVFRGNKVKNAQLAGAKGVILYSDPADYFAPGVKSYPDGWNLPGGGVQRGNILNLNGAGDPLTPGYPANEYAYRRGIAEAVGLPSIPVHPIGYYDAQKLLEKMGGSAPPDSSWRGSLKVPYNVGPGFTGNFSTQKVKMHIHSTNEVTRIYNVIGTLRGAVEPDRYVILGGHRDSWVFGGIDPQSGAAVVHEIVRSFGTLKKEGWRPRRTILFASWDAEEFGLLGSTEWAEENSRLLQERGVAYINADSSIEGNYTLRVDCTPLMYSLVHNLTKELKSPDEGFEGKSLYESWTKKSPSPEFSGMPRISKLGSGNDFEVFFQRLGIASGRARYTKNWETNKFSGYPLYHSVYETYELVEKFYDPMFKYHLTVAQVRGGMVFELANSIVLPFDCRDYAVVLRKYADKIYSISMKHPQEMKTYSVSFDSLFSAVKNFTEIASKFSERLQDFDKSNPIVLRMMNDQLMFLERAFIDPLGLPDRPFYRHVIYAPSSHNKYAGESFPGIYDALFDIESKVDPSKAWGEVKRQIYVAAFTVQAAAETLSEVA

- binding result [1]: binds
- binding result [2]: binds
B1: benchmark antibody J591 (antibody, V domains shown)
VH: EVQLQQSGPELKKPGTSVRISCKTSGYTFTEYTIHWVKQSHGKSLEWIGNINPNNGGTTYNQKFEDKATLTVDKSSSTAYMELRSLTSEDSAVYYCAAGWNFDYWGQGTTLTVSS
VL: DIVMTQSHKFMSTSVGDRVSIICKASQDVGTAVDWYQQKPGQSPKLLIYWASTRHTGVPDRFTGSGSGTDFTLTITNVQSEDLADYFCQQYNSYPLTFGAGTMLDLK
notes: It was detected with anti-human IgG Fc secondary antibody; also called Benchmark (J591)
